# B1: NFKB: benchmark DTS with NF-κB binding sites in pentameric repeat (SEQ ID NO: 140) (nucleic acid)
# DNA: GGGACTTTCCAGATTACTACTGATAGGGACTTTCCAGATTACTACTGATAGGGACTTTCCAGATTACTACTGATAGGGACTTTCCAGATTACTACTGATAGGGACTTTCC
# modifications: DNA nuclear targeting sequence within DNA cargo construct, further chemistry not given here
# What was measured:
# [1] = system: mouse liver; test: Pooled DTS pDNA-LNP i.v. in mice; mRNA abundance in liver by RNA-seq; format: in vivo; conditions: 1 d post-dose, pDNA-LNP 0.66 mg/kg i.v.
# Protocol: LNP formulation. LNPs encapsulating nucleic acid payloads were prepared by mixing an organic solution of lipids with an aqueous solution of nucleic acid (e.g., DNA only, mRNA only, or DNA/mRNA mixtures) as described in Prud′homme et al. (J Pharm Sci 2018). Briefly, the lipidic excipients mixture (ionizable lipid, helper lipid, cholesterol, PEG-lipid and potentially other targeting moieties) is dissolved in an organic solvent. An aqueous solution of the nucleic acid is prepared in a low pH buffer of range pH 3.0-4.0. The lipid mixture is then mixed with the aqueous nucleic acid solution at a flow ratio of 1:3 (V/V) using a commercially available mixer device. […] Particle size is determined by dynamic light scattering (Horiba nanoPartica SZ-100). Encapsulation efficiency is calculated by using Quant-it RiboGreen assay kit.
# (§1) Quantification of mRNA abundance from pooled DTS screens. […] The PCR amplified cDNA was then library prepped (NEBNext library prep for Illumina) and sequenced on an Illumina Miseq (2×150 bp reads). Counts for each UMI were translated into the corresponding DTS using the UMI/Barcode registry and changes in abundance of each DTS were statistically analyzed using a custom R script. The log 2 fold change is calculated by comparing the RNA level in the pool vs. its expected abundance, which is derived from the abundance in the corresponding input DNA pool. […]
# [2] = system: growth-arrested HepG2 cells; test: Pooled DTS screen in growth-arrested HepG2 cells; mRNA abundance by RNA-seq of UMIs; format: cell-based
# Text: Library cloning. Pooled DTS libraries were designed as described above. To ensure the highest quality library production of oligos for cloning, oligo lengths were standardized to 300 bp. To accommodate this standardized length the core sequence of each DTS was embedded center-justified in a neutral fragment of random DNA sequence. The flanks of each oligo contained unique golden gate restriction enzyme digestion sites (Bsal) for cloning of double stranded DNA into screening vectors. […] The proper UMI/DTS barcode correlation (termed here the “library registry”) was determined via excision of the hTTR/eGFP fragments, re-ligation of the vector, PCR amplification of the corresponding proximal DTS and UMI regions, and sequencing on an Illumina Miseq (2×150 bp reads). […]
# as §1
molecule,measurement,setting,value
B1,mRNA abundance in mouse liver compared to Spacer negative control,[1],largest and most statistically significant increase
same,mRNA abundance in pooled screen relative to Spacer negative control,[2],robust increases

# From patent publication US20260234655A1, “Nuclear Targeted DNA Delivery and Compositions for Use in Practicing the Same” (Seawolf Therapeutics, Inc., priority 2022, published 2026)
